From patent US20240350586A1 (TSINGHUA UNIVERSITY, published 2024)
Numbering of substitutions follows the chain as printed. Names may count otherwise.

T1: His-mRuby2-CCT2 (purified) (human, UniProt P78371 2-535)
T1 construct: 4 uM added to FUS P525L granules in vitro; also called CCT2 protein; not shown: His tag and mRuby2
T1 sequence: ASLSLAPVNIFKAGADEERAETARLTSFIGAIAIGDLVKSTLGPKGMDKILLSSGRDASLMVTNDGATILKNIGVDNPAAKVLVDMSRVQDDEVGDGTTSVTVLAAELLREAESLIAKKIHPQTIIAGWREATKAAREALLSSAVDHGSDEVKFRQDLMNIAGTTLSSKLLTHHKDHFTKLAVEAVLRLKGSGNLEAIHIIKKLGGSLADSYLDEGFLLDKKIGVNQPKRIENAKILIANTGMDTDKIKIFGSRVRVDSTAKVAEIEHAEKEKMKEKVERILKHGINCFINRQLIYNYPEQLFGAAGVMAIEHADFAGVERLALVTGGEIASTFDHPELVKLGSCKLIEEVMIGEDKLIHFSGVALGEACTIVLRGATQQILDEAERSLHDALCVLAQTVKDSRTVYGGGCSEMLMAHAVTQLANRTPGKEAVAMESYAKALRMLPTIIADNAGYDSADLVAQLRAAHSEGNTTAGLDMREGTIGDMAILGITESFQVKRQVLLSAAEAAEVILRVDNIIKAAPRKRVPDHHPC

B1: HA-CCT2 (chaperonin subunit CCT2, wild type, N-terminal HA tag) (other)
chain: T1 sequence
notes: Expressed in HEK293T or U2OS from pFUGW-HA-CCT2; CCT genes were amplified from HEK293T cDNA; also called WT CCT2; HA-CCT2 WT; not shown: N-terminal HA tag
B2: HA-CCT2 mVIL (other)
chain: T1 sequence with V512A, I513A, L514A
notes: also called CCT2 VIL mutated to alanine; not shown: N-terminal HA tag
B3: T7-GABARAP (expressed in cells) (other, UniProt O95166 1-116, looked up)
chain: MKFVYKEEHPFEKRRSEGEKIRKKYPDRVPVIVEKAPKARIGDLDKKKYLVPSDLTVGQFYFLIRKRIHLRAEDALFFFVNNVIPPTSATMGQLYQEHHEEDFFLYIAYSDESVYG
notes: not shown: T7 tag
B4: GST-HA-CCT2 with VLL and VIL mutated (purified) (other)
chain: T1 sequence with V502A, L503A, L504A, V512A, I513A, L514A
notes: also called GST-CCT2s; CCT2 with mutation of VLL and VIL; not shown: N-terminal GST and HA tags
B5: HA-CCT2 mVLL (other)
chain: T1 sequence with V502A, L503A, L504A
notes: also called CCT2 VLL mutated to alanine; not shown: N-terminal HA tag
B6: GFP-FUS P525L (purified, after TEV digestion of MBP-TEV-GFP-FUS P525L) (other, UniProt P35637 1-526, looked up)
chain: MASNDYTQQATQSYGAYPTQPGQGYSQQSSQPYGQQSYSGYSQSTDTSGYGQSSYSSYGQSQNTGYGTQSTPQGYGSTGGYGSSQSSQSSYGQQSSYPGYGQQPAPSSTSGSYGSSSQSSSYGQPQSGSYSQQPSYGGQQQSYGQQQSYNPPQGYGQQNQYNSSSGGGGGGGGGGNYGQDQSSMSSGGGSGGGYGNQDQSGGGGSGGYGQQDRGGRGRGGSGGGGGGGGGGYNRSSGGYEPRGRGGGRGGRGGMGGSDRGGFNKFGGPRDQGSRHDSEQDNSDNNTIFVQGLGENVTIESVADYFKQIGIIKTNKKTGQPMINLYTDRETGKLKGEATVSFDDPPSAKAAIDWFDGKEFSGNPIKVSFATRRADFNRGGGNGRGGRGRGGPMGRGGYGGGGSGGGGRGGFPSGGGGGGGQQRAGDWKCPNPTCENMNFSWRNECNQCKAPKPDGPGGGPGGSHMGGNYGDDRRGGRGGYDRGGYRGRGGDRGGFRGGRGGGDRGGFGPGKMDSRGEHRQDRRERLY
notes: 2 uM protein, as liquid granules (phase separation) or as solid aggregates (shaken at 700 rpm); also called FUS P525L granules; not shown: GFP
B7: CCT2 domain3 peptide 7 mVL(I)L (peptide)
peptide: ILGITESFQVKRQAAASAAEAAEAAARVDN
notes: Synthetic peptide coupled to agarose beads; VLL and VIL replaced by alanines; also called peptide 7 mutant (mVL (I) L)

Columns and labels:
T7-LC3B = T7-LC3B (UniProt Q9GZQ8 1-120); assay: co-IP of HA-CCT2 with T7-ATG8s in HEK293T
Excerpt: The cells were permeabilized with digitonin before fixation. [0136] (G) Quantification of LC3 around Q103-HTT IB (mean±SEM) as shown in (F). […] [0137] […] The cells were permeabilized with digitonin before immunoblot analysis. LE, long exposure; SE, short exposure. [0138] (I) Quantification of normalized Q103-HTT (mean±SEM) in (H). […] [0139] […] The VLIR motif VIL is highlighted in red. [0140] […] The data are representative of three independent experiments. [0141] […] The cells were permeabilized with digitonin before fixation. [0142] (M) Quantification of LC3 around IBs (mean±SEM) as shown in (L). […] [0143] […] [0144] (O) Quantification of normalized Q103-HTT (mean±SEM) in (N).
Co-immunoprecipitation was performed essentially as described before. In brief, 24 h after transfection, the cells were collected and lysed on ice for 30 min in co-IP buffer (50 mM Tris/HCl pH 7.4, 150 mM NaCl, 1 mM EDTA, 0.5% NP40) with protease inhibitor mixture, and the lysates were cleared by centrifugation. The resulting supernatants were incubated with indicated agarose or magnetic beads and rotated at 4° C. for 3 h. The agarose was washed five times with co-IP buffer. As for the BFP-tagged Q103, the supernatants were incubated with rabbit anti-BFP antibodies and Protein A/G PLUS-Agarose according to the manufacturers' protocol. […]

[1] = target: T2, T7-LC3C (expressed in cells) (UniProt Q9BXW4 1-126); assay: co-IP with T7-LC3C in HEK293T
T2 construct: Expressed from pCDNA3-T7-LC3C; not shown: T7 tag
T2 sequence (Q9BXW4 1-126): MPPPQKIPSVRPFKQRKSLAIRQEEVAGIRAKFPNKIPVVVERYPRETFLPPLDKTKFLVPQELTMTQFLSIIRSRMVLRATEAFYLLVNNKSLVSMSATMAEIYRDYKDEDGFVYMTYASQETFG
Description: (§1) The data are representative of three independent experiments. [0146] […] The data are representative of three independent experiments. [0147] […] The data are representative of three independent experiments. [0148] […] The interaction of the peptides with T7-GABARAP or T7-GABARAPL1 proteins was analyzed by in vitro pull-down. The data are representative of three independent experiments. [0149] […] The data are representative of three independent experiments. [0150] […] [0151] (K) Quantification of Q103-HTT-GFP area/DAPI area (mean±SEM) as shown in [0152] (J). 48 h represents IB accumulation stage and 72 h represents clearance stage. P values are indicated (two-tailed t test, >20 views from three independent experiments). [0153] […] The data are representative of three independent experiments. [0154] […] The data are representative of three independent experiments. [0155] […] The data are representative of three independent experiments.
(§2) Co-immunoprecipitation was performed essentially as described before. In brief, 24 h after transfection, the cells were collected and lysed on ice for 30 min in co-IP buffer (50 mM Tris/HCl pH 7.4, 150 mM NaCl, 1 mM EDTA, 0.5% NP40) with protease inhibitor mixture, and the lysates were cleared by centrifugation. The resulting supernatants were incubated with indicated agarose or magnetic beads and rotated at 4° C. for 3 h. The agarose was washed five times with co-IP buffer.

[2] = target: B1; assay: co-IP of HA-CCT2 with T7-GABARAP in HEK293T
Description: as §1, §2

[3] = target: T3, His-T7-LC3C (purified protein) (UniProt Q9BXW4 1-147); assay: in vitro pull-down of purified proteins, immunoblot
T3 construct: Purified on Ni sepharose; used in peptide and protein pull-downs; also called T7-LC3C protein; purified LC3C; not shown: His and T7 tags
T3 sequence (Q9BXW4 whole entry): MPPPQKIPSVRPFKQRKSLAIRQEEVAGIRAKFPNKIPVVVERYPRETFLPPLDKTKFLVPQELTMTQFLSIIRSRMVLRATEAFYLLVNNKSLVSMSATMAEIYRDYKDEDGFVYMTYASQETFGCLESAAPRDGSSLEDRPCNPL

[4] = target: T1, His-mRuby2-CCT2 (purified); assay: recruitment of 4 uM mRuby2-CCT2 to FUS P525L granules in vitro, imaging
Excerpt: [0179] […] [0180] […] [0181] […] [0182] […] [0184] […] [0185] […] [0186]

[5] = target: T3, His-T7-LC3C (purified protein); assay: peptide pull-down, immunoblot
Excerpt: The data are representative of three independent experiments. […] The cells were permeabilized with digitonin before fixation. [0136] (G) Quantification of LC3 around Q103-HTT IB (mean±SEM) as shown in (F). […] [0137] […] The cells were permeabilized with digitonin before immunoblot analysis. LE, long exposure; SE, short exposure. [0138] (I) Quantification of normalized Q103-HTT (mean±SEM) in (H). […] [0139] […] The VLIR motif VIL is highlighted in red. [0140] […] The data are representative of three independent experiments. [0141] […] The cells were permeabilized with digitonin before fixation. [0142] (M) Quantification of LC3 around IBs (mean±SEM) as shown in (L). […] [0143] […] [0144] (O) Quantification of normalized Q103-HTT (mean±SEM) in (N).
After washing, 2×SDS loading buffer was added to the beads, and immunoblot was performed as described previously.

Binder: B1
- binding result (T7-LC3B): binds

Binder: B2
- binding result [1]: no binding

Binder: B3
- binding result [2]: binds

Binder: B4
- binding result [3]: no binding

Binder: B5
- binding result [1]: no binding

Binder: B6
- binding result [4]: binds

Binder: B7
- binding result [5]: no binding
